Reference: patent publication US20260250318A1, “COMPOSITIONS AND METHODS FOR CROSSING THE BLOOD BRAIN BARRIER” (VOYAGER THERAPEUTICS, INC., priority 2022, published 2026)

How the values were obtained:
ALPL = target: T1, ALPL (Homo sapiens, UniProt P05186); assay: Inhibition of TTM-002 transduction by small molecule ALPL inhibitors in HeLa cells expressing ALPL; format: cell-based; parameters: endogenous in cells; host or cells: HeLa
T1 sequence (P05186 18-501): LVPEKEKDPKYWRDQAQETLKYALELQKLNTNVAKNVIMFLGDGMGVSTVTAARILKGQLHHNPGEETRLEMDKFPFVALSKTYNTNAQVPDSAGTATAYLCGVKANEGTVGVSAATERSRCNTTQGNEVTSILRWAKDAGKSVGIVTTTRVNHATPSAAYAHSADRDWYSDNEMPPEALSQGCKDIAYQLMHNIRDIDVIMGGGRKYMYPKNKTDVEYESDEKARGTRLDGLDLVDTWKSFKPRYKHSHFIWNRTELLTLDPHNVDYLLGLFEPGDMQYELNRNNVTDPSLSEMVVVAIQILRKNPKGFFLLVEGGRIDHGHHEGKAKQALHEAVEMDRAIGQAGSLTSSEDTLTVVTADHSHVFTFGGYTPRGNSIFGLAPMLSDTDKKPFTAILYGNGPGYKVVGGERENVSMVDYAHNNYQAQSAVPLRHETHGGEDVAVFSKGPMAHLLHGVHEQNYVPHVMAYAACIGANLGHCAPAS
Procedure: An inhibitor of ALPL was also investigated to determine if blocking the ALPL receptor would reduce cellular transduction of the TTM-002 capsid variant. […] The inhibitor or a vehicle control (equivalent amount of DMSO) was added to HeLa cells expressing ALPL 1 hour prior to transduction with an AAV viral particle comprising the TTM-002 capsid variant or an AAV9 control capsid and expressing a GFP-luciferase transgene under the control of a CAG promoter. The cells were then transduced with 1E4 VG/cell of an AAV particle comprising the TTM-002 capsid variant or an AAV9 control capsid. Media and virus were removed 4 hours post transduction and luciferase activity was measured (RLU) 24 hours post transduction.

[1] = target: T2, AAVR (universal AAV entry factor) expressed on HEK 293T cells (UniProt Q8IZA0 1-1049); assay: binding/internalization: AAV incubated 2 or 3 h with AAVR transfected HEK 293T cells, washed, viral genomes quantified
T2 construct: whole, on cells; also called AAVR positive control
T2 sequence: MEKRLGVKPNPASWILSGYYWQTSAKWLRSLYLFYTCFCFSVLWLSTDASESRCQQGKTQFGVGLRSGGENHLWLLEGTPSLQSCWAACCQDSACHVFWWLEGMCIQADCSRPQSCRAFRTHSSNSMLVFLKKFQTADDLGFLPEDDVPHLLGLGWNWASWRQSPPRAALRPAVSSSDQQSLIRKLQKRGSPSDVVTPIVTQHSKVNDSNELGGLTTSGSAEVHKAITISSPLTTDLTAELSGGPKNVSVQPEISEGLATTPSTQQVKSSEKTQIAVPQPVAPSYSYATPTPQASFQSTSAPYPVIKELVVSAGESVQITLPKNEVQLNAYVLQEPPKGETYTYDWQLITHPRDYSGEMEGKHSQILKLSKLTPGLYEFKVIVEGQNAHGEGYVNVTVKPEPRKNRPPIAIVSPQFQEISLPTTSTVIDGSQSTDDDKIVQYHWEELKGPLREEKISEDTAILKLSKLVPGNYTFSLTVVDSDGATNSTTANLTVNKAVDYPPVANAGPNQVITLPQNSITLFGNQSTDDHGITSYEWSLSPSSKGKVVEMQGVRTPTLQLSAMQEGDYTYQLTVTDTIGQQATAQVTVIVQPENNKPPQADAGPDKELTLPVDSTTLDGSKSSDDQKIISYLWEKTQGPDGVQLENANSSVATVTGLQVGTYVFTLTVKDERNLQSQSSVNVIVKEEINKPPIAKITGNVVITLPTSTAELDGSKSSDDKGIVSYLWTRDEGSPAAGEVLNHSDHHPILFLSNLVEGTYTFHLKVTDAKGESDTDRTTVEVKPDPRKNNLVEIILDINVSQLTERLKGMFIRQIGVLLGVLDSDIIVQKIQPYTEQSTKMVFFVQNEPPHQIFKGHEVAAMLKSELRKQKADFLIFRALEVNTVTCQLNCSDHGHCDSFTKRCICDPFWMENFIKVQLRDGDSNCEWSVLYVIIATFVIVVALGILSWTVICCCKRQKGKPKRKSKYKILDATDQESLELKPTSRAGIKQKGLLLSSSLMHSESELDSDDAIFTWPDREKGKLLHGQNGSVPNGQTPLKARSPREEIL

[2] = target: T3, human ALPL expressed on cells (alkaline phosphatase tissue-nonspecific isozyme, NM_000478.4) (human, UniProt P05186 18-501); assay: binding/internalization: AAV incubated 2 or 3 h with ALPL transfected HEK 293T cells, washed, viral genomes quantified
T3 construct: also called ALPL receptor; human ALPL protein (NM_000478.6)
T3 sequence: T1 sequence (P05186 18-501)

[3] = target: T4, murine ALPL ortholog expressed on HEK 293T cells (NM_001287172.1) (mouse, UniProt P09242 18-501); assay: cell-based or functional assay
T4 sequence: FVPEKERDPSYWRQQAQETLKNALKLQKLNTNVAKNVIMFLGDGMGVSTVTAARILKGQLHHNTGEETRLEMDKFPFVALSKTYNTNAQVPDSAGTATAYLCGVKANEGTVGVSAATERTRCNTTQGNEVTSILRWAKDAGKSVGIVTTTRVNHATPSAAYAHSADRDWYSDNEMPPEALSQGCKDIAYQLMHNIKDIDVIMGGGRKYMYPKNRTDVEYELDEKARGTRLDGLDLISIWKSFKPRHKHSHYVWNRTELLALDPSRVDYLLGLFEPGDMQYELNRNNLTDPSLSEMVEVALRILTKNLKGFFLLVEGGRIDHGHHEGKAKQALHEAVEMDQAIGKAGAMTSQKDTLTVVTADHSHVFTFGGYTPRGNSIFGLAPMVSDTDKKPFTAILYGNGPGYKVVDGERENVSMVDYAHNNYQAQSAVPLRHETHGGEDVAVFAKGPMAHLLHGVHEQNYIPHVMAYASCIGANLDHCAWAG

[4] = target: T3, human ALPL expressed on cells (alkaline …); assay: cell-based or functional assay
[5] = target: T5, ALPL with a deletion of the ER localization signal (ALPL transcript variant 2, NM_001127501) (human, UniProt P05186 56-501); assay: cell-based or functional assay
T5 sequence: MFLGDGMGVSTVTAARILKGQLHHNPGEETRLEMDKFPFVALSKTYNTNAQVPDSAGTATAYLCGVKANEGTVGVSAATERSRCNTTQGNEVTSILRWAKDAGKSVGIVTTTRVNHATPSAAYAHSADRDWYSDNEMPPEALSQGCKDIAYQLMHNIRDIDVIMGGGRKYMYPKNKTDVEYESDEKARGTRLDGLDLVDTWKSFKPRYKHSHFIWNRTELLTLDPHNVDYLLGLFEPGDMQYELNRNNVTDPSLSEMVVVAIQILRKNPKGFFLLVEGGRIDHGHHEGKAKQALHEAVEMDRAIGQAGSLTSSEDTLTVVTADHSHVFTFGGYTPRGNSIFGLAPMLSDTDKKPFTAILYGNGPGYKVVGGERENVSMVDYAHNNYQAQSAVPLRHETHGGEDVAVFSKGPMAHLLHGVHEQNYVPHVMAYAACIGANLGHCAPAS

[6] = target: T3, human ALPL expressed on cells (alkaline …); assay: cell-based or functional assay; remark: listed apart in the source
[7] = target: T3, human ALPL expressed on cells (alkaline …); assay: cell-based or functional assay; remark: listed apart in the source

**Q.** Which results are given for `COc1ccc(Cl)cc1S(=O)(=O)Nc1cncc(C(N)=O)c1` [SBI-425, 5-((5-chloro-2-methoxyphenyl)sulfonamido) nicotinamide]?
**A.** IC50 (ALPL): 0.34 nM; effect on TTM-002 transduction (ALPL): significantly inhibited TTM-002 transduction

B1: TTM-001 capsid variant (AAV particle comprising the TTM-001 AAV9 capsid variant) (other)
chain 1: MAADGYLPDWLEDNLSEGIREWWALKPGAPQPKANQQHQDNARGLVLPGYKYLGPGNGLDKGEPVNAADAAALEHDKAYDQQLKAGDNPYLKYNHADAEFQERLKEDTSFGGNLGRAVFQAKKRLLEPLGLVEEAAKTAPGKKRPVEQSPQEPDSSAGIGKSGAQPAKKRLNFGQTGDTESVPDPQPIGEPPAAPSGVGSLTMASGGGAPVADNNEGADGVGSSSGNWHCDSQWLGDRVITTSTRTWALPTYNNHLYKQISNSTSGGSSNDNAYFGYSTPWGYFDFNRFHCHFSPRDWQRLINNNWGFRPKRLNFKLFNIQVKEVTDNNGVKTIANNLTSTVQVFTDSDYQLPYVLGSAHEGCLPPFPADVFMIPQYGYLTLNDGSQAVGRSSFYCLEYFPSQMLRTGNNFQFSYEFENVPFHSSYAHSQSLDRLMNPLIDQYLYYLSKTINGSGSPHSKAQNQQTLKFSVAGPSNMAVQGRNYIPGPSYRQQRVSTTVTQNNNSEFAWPGASSWALNGRNSLMNPGPAMASHKEGEDRFFPLSGSLIFGKQGTGRDNVDADKVMITNEEEIKTTNPVATESYGQVATNHQSAQAQAQTGWVQNQGILPGMVWQDRDVYLQGPIWAKIPHTDGNFHPSPLMGGFGMKHPPPQILIKNTPVPADPPTAFNKDKLNSFITQYSTGQVSVEIEWELQKENSKRWNPEIQYTSNYYKSNNVEFAVNTEGVYSEPRPIGTRYLTRNL
chain 2: TAPGKKRPVEQSPQEPDSSAGIGKSGAQPAKKRLNFGQTGDTESVPDPQPIGEPPAAPSGVGSLTMASGGGAPVADNNEGADGVGSSSGNWHCDSQWLGDRVITTSTRTWALPTYNNHLYKQISNSTSGGSSNDNAYFGYSTPWGYFDFNRFHCHFSPRDWQRLINNNWGFRPKRLNFKLFNIQVKEVTDNNGVKTIANNLTSTVQVFTDSDYQLPYVLGSAHEGCLPPFPADVFMIPQYGYLTLNDGSQAVGRSSFYCLEYFPSQMLRTGNNFQFSYEFENVPFHSSYAHSQSLDRLMNPLIDQYLYYLSKTINGSGSPHSKAQNQQTLKFSVAGPSNMAVQGRNYIPGPSYRQQRVSTTVTQNNNSEFAWPGASSWALNGRNSLMNPGPAMASHKEGEDRFFPLSGSLIFGKQGTGRDNVDADKVMITNEEEIKTTNPVATESYGQVATNHQSAQAQAQTGWVQNQGILPGMVWQDRDVYLQGPIWAKIPHTDGNFHPSPLMGGFGMKHPPPQILIKNTPVPADPPTAFNKDKLNSFITQYSTGQVSVEIEWELQKENSKRWNPEIQYTSNYYKSNNVEFAVNTEGVYSEPRPIGTRYLTRNL
chain 3: MASGGGAPVADNNEGADGVGSSSGNWHCDSQWLGDRVITTSTRTWALPTYNNHLYKQISNSTSGGSSNDNAYFGYSTPWGYFDFNRFHCHFSPRDWQRLINNNWGFRPKRLNFKLFNIQVKEVTDNNGVKTIANNLTSTVQVFTDSDYQLPYVLGSAHEGCLPPFPADVFMIPQYGYLTLNDGSQAVGRSSFYCLEYFPSQMLRTGNNFQFSYEFENVPFHSSYAHSQSLDRLMNPLIDQYLYYLSKTINGSGSPHSKAQNQQTLKFSVAGPSNMAVQGRNYIPGPSYRQQRVSTTVTQNNNSEFAWPGASSWALNGRNSLMNPGPAMASHKEGEDRFFPLSGSLIFGKQGTGRDNVDADKVMITNEEEIKTTNPVATESYGQVATNHQSAQAQAQTGWVQNQGILPGMVWQDRDVYLQGPIWAKIPHTDGNFHPSPLMGGFGMKHPPPQILIKNTPVPADPPTAFNKDKLNSFITQYSTGQVSVEIEWELQKENSKRWNPEIQYTSNYYKSNNVEFAVNTEGVYSEPRPIGTRYLTRNL
**Q.** For B1, which “fold change in viral gene expression (2^-ΔΔCT) relative to pCMV6 transfected cells” value [1] is on record?
**A.** The value was 6.64 fold.

**Q.** What about the “fold change in viral gene expression (2^-ΔΔCT) relative to pCMV6 transfected cells” value [2] of the same molecule?
**A.** The value was 3.16 fold.

**Q.** What about the “fold change in luciferase activity relative to the pCMV6 control cells (cells transfected with murine ALPL protein)” value [3] of the same molecule?
**A.** The value was 18 fold.

**Q.** What about the “fold change in luciferase activity relative to the pCMV6 control cells (cells transfected with human ALPL protein)” value [4] of the same molecule?
**A.** Its value is 22 fold.

**Q.** What about the “fold change in luciferase activity relative to the pCMV6 control cells (cells transfected with ALPL comprising a deletion of the ER localization signal)” value [5] of the same molecule?
**A.** The value was 2 fold.

**Q.** And the “fold change in luciferase activity relative to the pCMV6 control cells (cells transfected with ALPL)” value [6]?
**A.** Its value is 22 fold.

**Q.** And the “luciferase activity, fold change relative to pCMV6 transfected HEK 293T cells (ALPL transfected cells)” value [7]?
**A.** Its value is 35 fold.
